Test results: the MegaScale stability set (Tsuboyama et al. 2023)

B1: EEHEE_rd3_0130 (parent)
chain: TKIIVNGKTFTAPTEEEAQKIAEKLAKKAGLTVHKKNGTFELK

Variants of: B1
Experiment: folding stability dG (cDNA display proteolysis); higher = more stable
Conditions: PBS, room temperature

Variant | folding stability dG
TKIIVNGKTFTAPTEEEAQKIANKLAKKAGLTVHKKNGTFELK | 0.832 kcal/mol
TKIIVNGKTFTAPTEEEAQKIAIKLAKKAGLTVHKKNGTFELK | 0.873 kcal/mol
TKIIVNGKTFTAPTEEEAQKIASKLAKKAGLTVHKKNGTFELK | 0.686 kcal/mol
TKIIVNGKTFTAPTEEEAQKIADKLAKKAGLTVHKKNGTFELK | 0.78 kcal/mol
TKIIVNGKTFTAPTEEEAQKIARKLAKKAGLTVHKKNGTFELK | 0.794 kcal/mol
TKIIVNGKTFTAPTEEEAQKIACKLAKKAGLTVHKKNGTFELK | 1.52 kcal/mol
TKIIVNGKTFTAPTEEEAQKIAHKLAKKAGLTVHKKNGTFELK | 0.803 kcal/mol
TKIIVNGKTFTAPTEEEAQKIAWKLAKKAGLTVHKKNGTFELK | 0.894 kcal/mol
TKIIVNGKTFTAPTEEEAQKIAAKLAKKAGLTVHKKNGTFELK | 0.74 kcal/mol
TKIIVNGKTFTAPTEEEAQKIATKLAKKAGLTVHKKNGTFELK | 0.669 kcal/mol
TKIIVNGKTFTAPTEEEAQKIAYKLAKKAGLTVHKKNGTFELK | 1.13 kcal/mol
TKIIVNGKTFTAPTEEEAQKIAFKLAKKAGLTVHKKNGTFELK | 0.837 kcal/mol
TKIIVNGKTFTAPTEEEAQKIAQKLAKKAGLTVHKKNGTFELK | 0.752 kcal/mol
TKIIVNGKTFTAPTEEEAQKIWEKLAKKAGLTVHKKNGTFELK | 0.017 kcal/mol
TKIIVNGKTFTAPTEEEAQKITEKLAKKAGLTVHKKNGTFELK | -0.186 kcal/mol
TKIIVNGKTFTAPTEEEAQKISEKLAKKAGLTVHKKNGTFELK | 0.153 kcal/mol
TKIIVNGKTFTAPTEEEAQKIYEKLAKKAGLTVHKKNGTFELK | -0.256 kcal/mol
TKIIVNGKTFTAPTEEEAQKIVEKLAKKAGLTVHKKNGTFELK | 0.71 kcal/mol
TKIIVNGKTFTAPTEEEAQKILEKLAKKAGLTVHKKNGTFELK | 0.301 kcal/mol
TKIIVNGKTFTAPTEEEAQKIQEKLAKKAGLTVHKKNGTFELK | -0.657 kcal/mol

Variant | folding stability dG
TKIIVNGKTFTAPTEEEAQKIREKLAKKAGLTVHKKNGTFELK | -0.631 kcal/mol
TKIIVNGKTFTAPTEEEAQKIMEKLAKKAGLTVHKKNGTFELK | 0.143 kcal/mol
TKIIVNGKTFTAPTEEEAQKIAEKEAKKAGLTVHKKNGTFELK | -0.265 kcal/mol
TKIIVNGKTFTAPTEEEAQKIAEKTAKKAGLTVHKKNGTFELK | -0.134 kcal/mol
TKIIVNGKTFTAPTEEEAQKIAEKWAKKAGLTVHKKNGTFELK | 1.48 kcal/mol
TKIIVNGKTFTAPTEEEAQKIAEKQAKKAGLTVHKKNGTFELK | -0.482 kcal/mol
TKIIVNGKTFTAPTEEEAQKIAEKRAKKAGLTVHKKNGTFELK | -0.578 kcal/mol
TKIIVNGKTFTAPTEEEAQKIAEKVAKKAGLTVHKKNGTFELK | 0.245 kcal/mol
TKIIVNGKTFTAPTEEEAQKIAEKAAKKAGLTVHKKNGTFELK | -0.68 kcal/mol
TKIIVNGKTFTAPTEEEAQKIAEKIAKKAGLTVHKKNGTFELK | 1.13 kcal/mol
TKIIVNGKTFTAPTEEEAQKIAEKFAKKAGLTVHKKNGTFELK | 0.651 kcal/mol
TKIIVNGKTFTAPTEEEAQKIAEKDAKKAGLTVHKKNGTFELK | -0.802 kcal/mol
TKIIVNGKTFTAPTEEEAQKIAEKMAKKAGLTVHKKNGTFELK | 0.784 kcal/mol
TKIIVNGKTFTAPTEEEAQKIAEKGAKKAGLTVHKKNGTFELK | -0.493 kcal/mol
TKIIVNGKTFTAPTEEEAQKIAEKYAKKAGLTVHKKNGTFELK | 0.649 kcal/mol
TKIIVNGKTFTAPTEEEAQKIAEKHAKKAGLTVHKKNGTFELK | -0.294 kcal/mol
TKIIVNGKTFTAPTEEEAQKIAEKCAKKAGLTVHKKNGTFELK | 1.13 kcal/mol
TKIIVNGKTFTAPTEEEAQKIAEKLAKWAGLTVHKKNGTFELK | 1.53 kcal/mol
TKIIVNGKTFTAPTEEEAQKIAEKLAKTAGLTVHKKNGTFELK | 0.727 kcal/mol
TKIIVNGKTFTAPTEEEAQKIAEKLAKRAGLTVHKKNGTFELK | 1.14 kcal/mol

Variant | folding stability dG
TKIIVNGKTFTAPTEEEAQKIAEKLAKIAGLTVHKKNGTFELK | 0.992 kcal/mol
TKIIVNGKTFTAPTEEEAQKIAEKLAKSAGLTVHKKNGTFELK | 0.779 kcal/mol
TKIIVNGKTFTAPTEEEAQKIAEKLAKQAGLTVHKKNGTFELK | 0.873 kcal/mol
TKIIVNGKTFTAPTEEEAQKIAEKLAKPAGLTVHKKNGTFELK | 0.128 kcal/mol
TKIIVNGKTFTAPTEEEAQKIAEKLAKAAGLTVHKKNGTFELK | 1.09 kcal/mol
TKIIVNGKTFTAPTEEEAQKIAEKLAKYAGLTVHKKNGTFELK | 1.06 kcal/mol
TKIIVNGKTFTAPTEEEAQKIAEKLAKGAGLTVHKKNGTFELK | 0.475 kcal/mol
TKIIVNGKTFTAPTEEEAQKIAEKLAKHAGLTVHKKNGTFELK | 0.757 kcal/mol
TKIIVNGKTFTAPTEEEAQKIAEKLAKMAGLTVHKKNGTFELK | 1.05 kcal/mol
TKIIVNGKTFTAPTEEEAQKIAEKLAKEAGLTVHKKNGTFELK | 0.862 kcal/mol
TKIIVNGKTFTAPTEEEAQKIAEKLAKVAGLTVHKKNGTFELK | 0.795 kcal/mol
TKIIVNGKTFTAPTEEEAQKIAEKLAKDAGLTVHKKNGTFELK | 0.738 kcal/mol
TKIIVNGKTFTAPTEEEAQKIAEKLAKLAGLTVHKKNGTFELK | 1.03 kcal/mol
TKIIVNGKTFTAPTEEEAQKIAEKLAKNAGLTVHKKNGTFELK | 0.582 kcal/mol
TKIIVNGKTFTAPTEEEAQKIAEKLAKFAGLTVHKKNGTFELK | 0.971 kcal/mol
TKIIVNGKTFTAPTEEEAQKIAEKLAKKEGLTVHKKNGTFELK | 0.607 kcal/mol
TKIIVNGKTFTAPTEEEAQKIAEKLAKKCGLTVHKKNGTFELK | 2.56 kcal/mol
TKIIVNGKTFTAPTEEEAQKIAEKLAKKDGLTVHKKNGTFELK | 0.326 kcal/mol
TKIIVNGKTFTAPTEEEAQKIAEKLAKKFGLTVHKKNGTFELK | 2.88 kcal/mol
